Laboratory results reported in US20260034234A1 (AGENSYS, published 2026).
Where a chain is given by its changes, count along the chain named.

What was measured:
[1] = molecular target: T1, Rat 191P4D12 (on PC3 cells) (rat, UniProt D3ZET1 31-509); assay: FACS saturation binding on PC3-rat-191P4D12 cells
T1 construct: whole, on cells; also called PC3-rat-191P4D12; Rat ortholog
T1 sequence: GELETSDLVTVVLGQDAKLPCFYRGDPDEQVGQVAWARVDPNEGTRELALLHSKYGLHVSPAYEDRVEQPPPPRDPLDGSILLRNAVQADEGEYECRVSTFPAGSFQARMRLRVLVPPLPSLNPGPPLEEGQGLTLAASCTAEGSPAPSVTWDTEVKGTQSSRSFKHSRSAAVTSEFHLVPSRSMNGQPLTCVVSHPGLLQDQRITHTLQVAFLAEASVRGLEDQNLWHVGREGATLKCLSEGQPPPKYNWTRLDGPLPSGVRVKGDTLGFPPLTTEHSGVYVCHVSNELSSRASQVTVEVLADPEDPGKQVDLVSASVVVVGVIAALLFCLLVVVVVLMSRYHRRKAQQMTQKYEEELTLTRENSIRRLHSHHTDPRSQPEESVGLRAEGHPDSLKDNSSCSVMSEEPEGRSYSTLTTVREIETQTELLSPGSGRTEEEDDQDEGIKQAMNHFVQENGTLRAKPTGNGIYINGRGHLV
Procedure: (§1) Ha22-2(2,4)6.1vcMMAE was tested for its binding affinity to 191P4D12 expressed on the surface of PC3-human-191P4D12, PC3-Cynomolgus-191P4D12, and PC3-rat-191P4D12 cells respectively. Briefly, eleven (11) dilutions of Ha22-2(2,4)6.1vcMMAE were incubated with each of the cell types (50,000 cells per well) overnight at 4° C. at a final concentration of 160 nM to 0.011 nM. At the end of the incubation, cells are washed and incubated with anti-hIgG-PE detection antibody for 45 min at 4° C. After washing the unbound detection antibodies, the cells are analyzed by FACS. MFI values were entered into Graphpad Prisim software and analyzed using the one site binding (hyperbola) equation of Y=Bmax*X/(Kd+X) to generate Ha22-2(2,4)6.1vcMMAE saturation curves shown also in FIGS. 6-8 respectively. Bmax is the MFI value at maximal binding of Ha22-2(2,4)6.1vcMMAE to 191P4D12; Kd is the Ha22-2(2,4)6.1vcMMAE binding affinity which is the concentration of Ha22-2(2,4)6.1vcMMAE required to reach half-maximal binding.

[2] = molecular target: T2, purified recombinant 191P4D12 (ECD amino acids 1-348) (human, UniProt Q96NY8 32-348); assay: SPR (Biacore), ADC captured by anti-human Fc, 191P4D12 ECD as analyte
T2 construct: Range as printed
T2 sequence: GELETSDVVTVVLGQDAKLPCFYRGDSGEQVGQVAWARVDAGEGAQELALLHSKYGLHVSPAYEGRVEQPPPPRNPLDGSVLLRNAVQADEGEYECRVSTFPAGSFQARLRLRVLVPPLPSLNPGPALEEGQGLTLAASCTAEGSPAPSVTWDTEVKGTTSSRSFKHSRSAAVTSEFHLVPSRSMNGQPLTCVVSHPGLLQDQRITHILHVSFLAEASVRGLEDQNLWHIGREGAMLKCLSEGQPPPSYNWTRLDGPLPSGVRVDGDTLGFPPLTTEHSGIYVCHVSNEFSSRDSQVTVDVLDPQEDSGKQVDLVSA
Procedure: The affinity of Ha22-2(2,4)6.1 MAb and Ha22-2(2,4)6.1vcMMAE to purified recombinant 191P4D12 (ECD amino acids 1-348) was performed by Surface Plasmon Resonance (SPR) (BIAcore). Briefly, goat-anti-human Fcγ polyclonal Abs (Jackson Immuno Research Labs, Inc.) were covalently immobilized on the surface of a CM5 sensor chip (Biacore). Purified Ha22-2(2,4)6.1 MAb or Ha22-2(2,4)6.1vcMMAE were then captured on the surface of said chip. On average, approximately 300 RUs of test Ha22-2(2,4)6.1 MAb or Ha22-2(2,4)6.1vcMMAE was captured in every cycle. Subsequently, a series of five (5) to six (6) dilutions of recombinant 191P4D12 (ECD amino acids 1-348) ranging from 1 nM to 100 nM was injected over such surface to generate binding curves (sensograms) that were processed and globally fit to a 1:1 interaction model using BIAevaluation 3.2 and CLAMP software (Myszka and Morton, 1998) (FIG. 22). Table V summarizes association and dissociation rate constants as well as affinities of Ha22-2(2,4)6.1 MAb and Ha22-2(2,4)6.1 vcMMAE to recombinant 191P4D12 (ECD amino acids 1-348).

[3] = molecular target: T3, 191P4D12 (human, wild type, on cells) (human, UniProt Q96NY8 32-510); assay: FACS saturation binding on PC3-human-191P4D12 cells
T3 construct: 510 amino acid ORF expressed on PC3, RAT/Rat1(E) cells and present in cancer cell lines and tumor specimens; also called human 191P4D12; wild-type 191P4D12
T3 sequence: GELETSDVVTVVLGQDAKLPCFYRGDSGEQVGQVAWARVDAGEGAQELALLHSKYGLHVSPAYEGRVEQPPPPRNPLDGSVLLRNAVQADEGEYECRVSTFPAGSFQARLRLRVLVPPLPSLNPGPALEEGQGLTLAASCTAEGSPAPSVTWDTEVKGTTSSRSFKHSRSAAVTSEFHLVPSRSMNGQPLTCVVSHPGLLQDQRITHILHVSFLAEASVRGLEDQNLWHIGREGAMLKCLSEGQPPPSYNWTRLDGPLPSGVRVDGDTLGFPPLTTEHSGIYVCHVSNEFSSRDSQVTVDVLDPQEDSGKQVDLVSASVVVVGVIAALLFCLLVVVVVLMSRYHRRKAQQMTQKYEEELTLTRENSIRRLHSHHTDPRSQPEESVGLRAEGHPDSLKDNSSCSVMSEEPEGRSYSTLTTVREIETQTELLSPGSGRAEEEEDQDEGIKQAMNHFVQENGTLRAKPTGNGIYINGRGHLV
Procedure: as §1

[4] = molecular target: T4, Cynomolgus 191P4D12 (on PC3 cells) (cynomolgus monkey, UniProt A0A2K5WES1 32-510); assay: FACS saturation binding on PC3-Cynomolgus-191P4D12 cells
T4 construct: also called PC3-Cynomolgus-191P4D12; Cyno ortholog
T4 sequence: T3 sequence with V39A, I230V, A437T
Procedure: as §1

B1: Ha22-2(2,4)6.1vcMMAE (antibody, human IgG1, kappa, V domains shown)
VH: EVQLVESGGGLVQPGGSLRLSCAASGFTFSSYNMNWVRQAPGKGLEWVSYISSSSSTIYYADSVKGRFTISRDNAKNSLSLQMNSLRDEDTAVYYCARAYYYGMDVWGQGTTVTVSS
VL: DIQMTQSPSSVSASVGDRVTITCRASQGISGWLAWYQQKPGKAPKFLIYAASTLQSGVPSRFSGSGSGTDFTLTISSLQPEDFATYYCQQANSFPPTFGGGTKVEIKR
modifications: vcMMAE (Val-Cit linker, MMAE) on cysteine thiols after partial TCEP reduction, positions not given; p about 3.8 drugs per antibody
notes: also called Ha22-2(2,4)6.1ADC
B1 gave a Kd [1] of 1.6 nM, a Kd [2] of 11 nM and a koff [2] of 0.0052 s⁻¹. It also gave a kon [2] of 450000 M⁻¹ s⁻¹, a Kd [3] of 0.69 nM and a Kd [4] of 0.34 nM.
